Experimental data as given in patent US20110039779A1, “IGF-1R BINDING PROTEINS AND ANTAGONISTS” (priority 2007, published 2011).

Key:
[1] = biological target: IGF-1R on SW480 cells, P08069; experiment: cell-based or functional assay
[2] = biological target: IGF-1R on MCF-7 cells (MCF-7S8, MCF7) (human), P08069; experiment: cell-based or functional assay
Chain of IGF-1R on MCF-7 cells (MCF-7S8, MCF7) (human), P08069 (P08069 31-1367): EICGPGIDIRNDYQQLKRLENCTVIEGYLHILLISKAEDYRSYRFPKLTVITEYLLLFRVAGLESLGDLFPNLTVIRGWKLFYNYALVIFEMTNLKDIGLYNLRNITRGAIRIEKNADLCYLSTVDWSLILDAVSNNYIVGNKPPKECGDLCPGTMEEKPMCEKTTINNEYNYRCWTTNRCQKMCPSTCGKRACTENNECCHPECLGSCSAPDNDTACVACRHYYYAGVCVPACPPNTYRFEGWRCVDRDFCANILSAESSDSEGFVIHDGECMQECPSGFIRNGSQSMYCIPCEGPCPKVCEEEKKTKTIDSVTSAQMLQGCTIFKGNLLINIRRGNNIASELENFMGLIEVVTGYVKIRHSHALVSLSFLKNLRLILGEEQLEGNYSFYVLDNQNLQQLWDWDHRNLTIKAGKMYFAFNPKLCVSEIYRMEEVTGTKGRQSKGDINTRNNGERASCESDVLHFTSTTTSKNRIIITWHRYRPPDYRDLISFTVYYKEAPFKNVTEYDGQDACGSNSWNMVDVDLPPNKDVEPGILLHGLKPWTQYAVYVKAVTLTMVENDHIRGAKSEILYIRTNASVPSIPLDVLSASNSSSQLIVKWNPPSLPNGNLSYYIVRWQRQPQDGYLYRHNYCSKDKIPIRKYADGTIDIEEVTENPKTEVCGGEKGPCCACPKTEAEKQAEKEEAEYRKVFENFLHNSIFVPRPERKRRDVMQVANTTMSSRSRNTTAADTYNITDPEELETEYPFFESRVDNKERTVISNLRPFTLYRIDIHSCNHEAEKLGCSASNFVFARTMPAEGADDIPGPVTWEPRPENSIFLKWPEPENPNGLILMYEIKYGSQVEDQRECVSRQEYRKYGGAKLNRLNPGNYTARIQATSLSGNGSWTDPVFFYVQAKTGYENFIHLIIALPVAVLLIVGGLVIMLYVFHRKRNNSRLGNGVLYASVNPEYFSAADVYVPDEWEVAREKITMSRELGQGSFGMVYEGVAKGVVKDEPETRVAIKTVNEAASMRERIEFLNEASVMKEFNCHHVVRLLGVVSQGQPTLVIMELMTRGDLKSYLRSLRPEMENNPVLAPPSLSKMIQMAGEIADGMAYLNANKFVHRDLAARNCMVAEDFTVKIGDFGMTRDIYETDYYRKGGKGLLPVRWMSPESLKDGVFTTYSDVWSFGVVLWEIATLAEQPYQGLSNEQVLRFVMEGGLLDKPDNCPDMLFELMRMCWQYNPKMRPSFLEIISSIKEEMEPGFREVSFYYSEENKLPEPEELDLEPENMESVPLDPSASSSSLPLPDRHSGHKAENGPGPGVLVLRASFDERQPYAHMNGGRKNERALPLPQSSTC

Chain of IGF-1R on SW480 cells, P08069 (P08069 31-1367 limits assumed): as the sequence (P08069 31-1367) above

B1: F113 (peptide)
peptide: SFYSCLESLVNGGAERSDGQWEGCR
modifications: not checked
[1]
  IC50, IGF-1 (10 nM)-induced proliferation of SW480 cells, exp. 13262-015: > 10 µM
  IC50, IGF-1 (10 nM)-induced proliferation of SW480 cells, exp. 13262-016: > 10 µM
[2]
  Cell: 1000 nM
